How the values were obtained:
Assay in all cases: biopanning and SPR screening
human TGFβ2 = target: T1, human TGFβ2 (human, UniProt P61812 303-414)
T1 construct: also called hTGFβ2
T1 sequence (looked up): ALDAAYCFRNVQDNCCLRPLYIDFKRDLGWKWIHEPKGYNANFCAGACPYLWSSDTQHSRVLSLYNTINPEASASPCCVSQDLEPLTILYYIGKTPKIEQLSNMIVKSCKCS

human TGFβ1 = target: T2, human TGFβ1 (human, UniProt P01137 279-390)
T2 construct: also called hTGFβ1; hTGFβ-1

human TGFβ3 = target: T3, human TGFβ3 (human, UniProt P10600 301-412)
T3 construct: also called hTGFβ3
T3 sequence (looked up): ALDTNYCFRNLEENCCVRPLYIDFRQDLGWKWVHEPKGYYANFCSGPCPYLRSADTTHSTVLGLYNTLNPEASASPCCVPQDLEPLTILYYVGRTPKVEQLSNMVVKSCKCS

mouse TGFβ1 = target: T4, mouse TGFβ1 (mouse, UniProt P04202 279-390)
T4 construct: also called mTGFβ1; mTGFβ-1
T4 sequence (P04202 279-390 limits assumed): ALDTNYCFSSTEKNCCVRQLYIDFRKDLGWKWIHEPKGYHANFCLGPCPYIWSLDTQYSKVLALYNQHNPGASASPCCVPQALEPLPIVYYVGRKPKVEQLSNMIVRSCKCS

T2 sequence (P01137 279-390 limits assumed): as the sequence (P04202 279-390 limits assumed) above, with S75A counted along it

- binding result (human TGFβ2): binds
- binding result (human TGFβ1): binds
- binding result (human TGFβ3): binds
- binding result (mouse TGFβ1): binds
B1: 4H7 (scFv)
scFv: QVQLVESGGGLVKPGRSLRLSCAASGFTFSSYAMHWVRQAPGKGLEWVAVISYDGSNKYYADSVKGRFTISRDNSKNTLYLQMNSLRAEDTAVYYCAKEMRYCSGGSCYPYAYYMDVWGQGTTVTVSSASTGGGGSGGGGSGGGGSVHSSSELTQDPAVSVALGQTVRITCQGDSLRSYYASWYQQKPGQAPVLVIYGKNNRPSGIPDRFSGSSSGNTASLTITGAQAEDEADYYCNSRDSSGNLVVFGGGTKLTVLGLGG
notes: also called anti-TGFβ-1 scFv 4H7

From patent US12006361 (SONNET BIOTHERAPEUTICS, dated 2024)
